Target: SERINC5-VN-HA (human) (UniProt Q86VE9)
Test: split reporter

UniProt Q86VE9, sequence (Q86VE9 whole entry): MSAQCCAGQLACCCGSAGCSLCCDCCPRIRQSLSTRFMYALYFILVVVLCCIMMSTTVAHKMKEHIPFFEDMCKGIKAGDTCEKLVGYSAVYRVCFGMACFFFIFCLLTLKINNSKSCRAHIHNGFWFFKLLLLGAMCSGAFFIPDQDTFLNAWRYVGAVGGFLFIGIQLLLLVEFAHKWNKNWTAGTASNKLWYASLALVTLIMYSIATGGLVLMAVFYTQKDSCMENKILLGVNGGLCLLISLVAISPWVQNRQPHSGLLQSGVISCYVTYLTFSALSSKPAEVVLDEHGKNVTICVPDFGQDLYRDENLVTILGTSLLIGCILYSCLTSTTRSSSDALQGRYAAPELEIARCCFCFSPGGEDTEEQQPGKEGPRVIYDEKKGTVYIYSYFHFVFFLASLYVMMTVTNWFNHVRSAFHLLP

Substance: Nef_(NL43)-V5-VC (HIV-1 NL4-3 Nef fused to a Venus fragment) (natural protein)
- fold increase in BiFC fluorescence over the singly expressed constructs: 4 fold
